IntAct's records for PubMed 16628219

B1: Ras GTPase-activating-like protein IQGAP1 (Mus musculus), Q9JKF1 (parent)
chain: MSAAEEVDGLGVVRPHYGSVLDNERLTAEEMDERRRQNVAYEYLCHLEEAKRWMEACLGEDLPPTTELEEGLRNGVYLAKLGNFFSPKVVSLKKIYDREQTRYKATGLHFRHTDNVIQWLNAMDEIGLPKIFYPETTDIYDRKNMPRCIYCIHALSLYLFKLGLAPQIQDLYGKVDFTEEEINNMKIELEKYGIQMPAFSKIGGILANELSVDEAALHAAVIAINEAIDRRVAADTFTALKNPNAMLVNLEEGLAPTYQDVLYQAKQDKMTNAKNRTENSDRERDVYEELLTQAEIQGNVNKVNTSSALANISLALEQGCAVTLLKALQSLALGLRGLQTQNSDWYMKQLQSDLQQKRQSGQTDPLQKEEVQAGVDAANSAAQQYQRRLAAVAAINAAIQKGIAEKTVLELMNPEAQLPQVYPFAADLYQKELATLQQQSPEHSLTHPELTVAVEMLSSVALINRALESGDMTTVWKQLSSSVTGLTNIEEENCQRYLDELMKLKAQAHAENNAFITWNDIQACVDHVNLVVHEEHERILAIGLINEALDEGDAQKTLQALQIPAAKLEGVLAEVAQHYQDTLIRAKREKAQETQDESAVLWLDEIQGGIWQSNKDTQEAQRFALGISAINEAVDSGDVGRTLSALRSPDVGLYGVIPECGETYQSDLAEAKKKRLAAGDNNSKWVKHWVKGGYHYYHNLETQAGGWAEPPDFVQNSVQLSREEIQSSISGVTAAYNREQLWLANEGLITKLQACCRGYLVRQEFRSRMNFLKKQIPAITCIQSQWRGYKQKKAYQDRLAYLHSHKDEVVKIQSLARMHQARKRYRDRLQYFRDHINDIIKIQAFIRANKARDDYKTLINAEDPPMIVVRKFVHLLDQSDQDFQEELDLMKMREEVITLIRSNQQLENDLNLMDIKIGLLVKNKITLQDVVSHSKKLTKKNKEQLSDMMMINKQKGGLKALSKEKREKLEAYQHLFYLLQTNPTYLAKLIFQMPQNKSTKFMDSVIFTLYNYASNQREEYLLLRLFQTALQEEIKSKVDQIQEIVTGNPTVIKMVVSFNRGARGQNALRQILAPVVKEIMDDKSLNIKTDPVDIYKSWVNQMESQTGEASKLPYDVTPEQALSHEEVKTRLDNSIRNMRAVTDKFLSAIVSSVDKIPYGMRFIAKVLKDSLHEKFPDAGEDELLKIIGNLLYYRYMNPAIVAPDAFDIIDLSAGGQLTTDQRRNLGSIAKMLQHAASNKMFLGDNAHLSIINEYLSQSYQKFRRFFQVACDVPELQDKFNVDEYSDLVTLTKPVIYISIGEIINTHTLLLDHQDAIAPEHNDPIHELLDDLGEVPTIESLIGESCGNSNDPNKEALAKTEVSLTLTNKFDVPGDENAEMDARTILLNTKRLIVDVIRFQPGETLTEILETPATNEQEAEHQRAMQRRAIRDAKTPDKMKKSKPMKEDNNLSLQEKKEKIQTGLKKLTELGTVDPKNRYQELINDIAKDIRNQRRYRQRRKAELVKLQQTYSALNSKATFYGEQVDYYKSYIKTCLDNLASKGKVSKKPREMKGKKSKKISLKYTAARLHEKGVLLEIEDLQANQFKNVIFEIGPTEEVGDFEVKAKFMGVQMETFMLHYQDLLQLQYEGVAVMKLFDRAKVNVNLLIFLLNKKFYGK
B2: Gag polyprotein (Moloney murine leukemia virus (isolate Shinnick) (MoMLV)), P03332 (parent)
chain: MGQTVTTPLSLTLGHWKDVERIAHNQSVDVKKRRWVTFCSAEWPTFNVGWPRDGTFNRDLITQVKIKVFSPGPHGHPDQVPYIVTWEALAFDPPPWVKPFVHPKPPPPLPPSAPSLPLEPPRSTPPRSSLYPALTPSLGAKPKPQVLSDSGGPLIDLLTEDPPPYRDPRPPPSDRDGNGGEATPAGEAPDPSPMASRLRGRREPPVADSTTSQAFPLRAGGNGQLQYWPFSSSDLYNWKNNNPSFSEDPGKLTALIESVLITHQPTWDDCQQLLGTLLTGEEKQRVLLEARKAVRGDDGRPTQLPNEVDAAFPLERPDWDYTTQAGRNHLVHYRQLLLAGLQNAGRSPTNLAKVKGITQGPNESPSAFLERLKEAYRRYTPYDPEDPGQETNVSMSFIWQSAPDIGRKLERLEDLKNKTLGDLVREAEKIFNKRETPEEREERIRRETEEKEERRRTEDEQKEKERDRRRHREMSKLLATVVSGQKQDRQGGERRRSQLDRDQCAYCKEKGHWAKDCPKKPRGPRGPRPQTSLLTLDD
partner: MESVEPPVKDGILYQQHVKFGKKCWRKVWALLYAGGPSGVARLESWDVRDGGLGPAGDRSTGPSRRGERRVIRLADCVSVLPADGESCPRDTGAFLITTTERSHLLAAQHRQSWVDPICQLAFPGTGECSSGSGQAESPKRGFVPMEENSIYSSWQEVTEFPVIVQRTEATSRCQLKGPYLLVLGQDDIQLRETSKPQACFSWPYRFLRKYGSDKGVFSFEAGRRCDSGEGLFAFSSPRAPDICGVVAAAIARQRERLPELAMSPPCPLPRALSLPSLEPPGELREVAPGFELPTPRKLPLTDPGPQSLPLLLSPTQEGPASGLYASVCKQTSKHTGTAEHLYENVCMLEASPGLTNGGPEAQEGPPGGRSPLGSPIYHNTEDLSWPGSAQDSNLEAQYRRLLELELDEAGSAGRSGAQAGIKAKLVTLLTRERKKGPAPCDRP
B3: Gag polyprotein (Moloney murine leukemia virus (isolate Shinnick) (MoMLV)), P03332 (parent)
chain: B2 chain

Variants of: B1
Conditions: with gag_mlvms gag

Variant | effect of a mutation on the interaction
N1514A;S1515A;K1516A | disrupting interaction

Variants of: B2
Conditions: with dok3_mouse Dok3, Q9QZK7

Variant | effect of a mutation on the interaction
L89A;F91A;D92A | disrupting interaction

Variants of: B2
Conditions: with dok3_mouse Dok3, Q9QZK7
Remark: another data set of the same source

Variant | effect of a mutation on the interaction
F69A;S70A;P71A | disrupting interaction

Variants of: B2
Conditions: with dok3_mouse Dok3, Q9QZK7
Remark: another data set of the same source

Variant | effect of a mutation on the interaction
G72A;P73A;H74A | disrupting interaction

Variants of: B3
Conditions: with iqga1_mouse Iqgap1, Q9JKF1

Variant | effect of a mutation on the interaction
L60A;I61A;T62A | disrupting interaction

Variants of: B3
Conditions: with iqga1_mouse Iqgap1, Q9JKF1
Remark: another data set of the same source

Variant | effect of a mutation on the interaction
Q63A;V64A;K65A | disrupting interaction
